Paper PMC3554631, “Structural Basis of a Histone H3 Lysine 4 Demethylase Required for Stem Elongation in Rice” (PLoS Genetics, 2013)
Residue numbers refer to the chain shown, from its start. Names and notes keep the numbering of the source.

B1: H394A: JMJ703 substitution mutant, Fe-binding residue (protein, UniProt Q53WJ1 1-1238, looked up, variant H394A)
Lysine-specific demethylase …: MMGVTTTLNEDTEPSIPPGFGPFATLPLWGIHNDAKPAVTHSTPVQALQSIRKDSEECQPSAAVSRSDTPCSTSGTQTCRKSLRNRPPIDYSRFEHISDEDSDVEIVEKDVSSTRRRQQLPKGVLRGCAECSDCQKVIAKWNPAGARRPVLDEAPVFYPTEEEFEDTLKYIESIRPMAEPYGICRIVPPSSWKPPCLLKDKSIWEGSKFSTRVQKVDKLQNRKSSKKGRRGGMMKRRKLAESEENSATAHTQTGMQQSPERFGFEPGPEFTLQTFQKYADDFSKQYFRKDTSMDSVPSVEDIEGEYWRIVEVPTEEIEVIYGADLETGTFGSGFPKLSPETKSDAEDKYAQSGWNLNNLPRLQGSVLSFEGGDISGVLVPWVYVGMCFSSFCWAVEDHHLYSLNYMHWGAPKLWYGVPGKDAVNLESAMRKHLPELFEEQPDLLHNLVTQFSPSLLKSEGVHVYRCVQHEGEFVLTFPRAYHAGFNCGFNCAEAVNVAPIDWLPIGHNAVELYREQARKITISHDKLLLGAAREAIRAQWDILFLKRNTADNMRWKSICGADSTIFKALKARIETELVQRKTLGVPAQSRKMDAEFDSIDRECALCYYDLHLSASGCPCCPEKYACLVHAKQLCSCDWDKRFFLFRYDVNELNILADALGGKLSAIHRWGVSDLGLSLSSCVKREKVQDSKTVRRLTDGPRRSYMSQASAVSLVSSSTSNEQKDEGNKIMKIASPQTNNVCPSVEQRKSENISPLKEPCVRNELSCTTNSDSNGLQYNGGLGGHKGSAPGLPVSSSPSFSSNVATRPISTSSVSMKIVQGLVASKSCIQASSRTGDSRSLLGEHHNRSPAMIHDGTNMKSSLESSNNSCRLIASDYNATPCHSSKDQVLVTPGTNASVVTLKDSSQVHSASSQQFVRTGPWTQSASHEASSPSTSALKPSLDPPAMKNLYGGFTQGSAHPGPPSFSNQQPNDGRLQRTSESLPGVEARARGHPTVTAQPALEIHSRNGGAQKGPRIANVVHRFKCSVEPLEIGVVLSGRLWSSSQAIFPKGFRSRVKYFSIVDPIQMAYYISEILDAGMQGPLFMVKLENCPGEVFINLSPTKCWNMVRERLNMEIRRQLNMGKSNLPTLQPPGSVDGLEMFGLLSPPIVQAIWARDRDHICTEYWRSRPHVLIEDPNNRHMLSQGPPLLALRGLIQRANRDELQVLRSLMTNSNNLDDSSRQQAAHIIEEEIAKQLC
B2: N496A: JMJ703 substitution mutant, methyl group-binding residue (protein, UniProt Q53WJ1 1-1238, looked up, variant N496A)
Lysine-specific demethylase …: B1 Lysine-specific demethylase … with A394H, N496A
B3: G376A: JMJ703 substitution mutant, methyl group-binding residue (protein, UniProt Q53WJ1 1-1238, looked up, variant G376A)
Lysine-specific demethylase …: B1 Lysine-specific demethylase … with G376A, A394H
B4: E396A: JMJ703 substitution mutant, methyl group-binding residue (protein, UniProt Q53WJ1 1-1238, looked up, variant E396A)
Lysine-specific demethylase …: B1 Lysine-specific demethylase … with A394H, E396A
B5: Y383A: JMJ703 substitution mutant, methyl group-binding residue (protein, UniProt Q53WJ1 1-1238, looked up, variant Y383A)
Lysine-specific demethylase …: B1 Lysine-specific demethylase … with Y383A, A394H
B6: W381A: JMJ703 substitution mutant, residue conserved in H3K4 demethylases (protein, UniProt Q53WJ1 1-1238, looked up, variant W381A)
Lysine-specific demethylase …: B1 Lysine-specific demethylase … with W381A, A394H
B7: Y321A: JMJ703 substitution mutant, α-ketoglutaric acid-binding residue (protein, UniProt Q53WJ1 1-1238, looked up, variant Y321A)
Lysine-specific demethylase …: B1 Lysine-specific demethylase … with Y321A, A394H
B8: K412A: JMJ703 substitution mutant, α-ketoglutaric acid-binding residue (protein, UniProt Q53WJ1 1-1238, looked up, variant K412A)
Lysine-specific demethylase …: B1 Lysine-specific demethylase … with A394H, K412A
B9: N404A: JMJ703 substitution mutant, α-ketoglutaric acid-binding residue (protein, UniProt Q53WJ1 1-1238, looked up, variant N404A)
Lysine-specific demethylase …: B1 Lysine-specific demethylase … with A394H, N404A
B10: L447A: JMJ703 substitution mutant, residue conserved in H3K4 demethylases (protein, UniProt Q53WJ1 1-1238, looked up, variant L447A)
Lysine-specific demethylase …: B1 Lysine-specific demethylase … with A394H, L447A
B11: H482Y: JMJ703 substitution mutant, Fe-binding residue (protein, UniProt Q53WJ1 1-1238, looked up, variant H482Y)
Lysine-specific demethylase …: B1 Lysine-specific demethylase … with A394H, H482Y
B12: A494S: JMJ703 substitution mutant, methylation state-specificity residue (protein, UniProt Q53WJ1 1-1238, looked up, variant A494S)
Lysine-specific demethylase …: B1 Lysine-specific demethylase … with A394H, A494S

Tests used:
[1] = target: c-JMJ703, catalytic core domain of JMJ703 (amino acids 139 to 498) (rice) (UniProt Q53WJ1); experiment: SPR; BIAcore 3000, 25°C; c-JMJ703 amine-coupled to a CM5 chip; peptides injected at various concentrations at 10 µL/min for 2 min in 10 mM HEPES pH 7.5, 150 mM NaCl, 0.005% Tween20; reference flow cell subtracted
Chain of c-JMJ703, catalytic core domain of JMJ703 (amino acids 139 to 498) (rice) (Q53WJ1 139-498): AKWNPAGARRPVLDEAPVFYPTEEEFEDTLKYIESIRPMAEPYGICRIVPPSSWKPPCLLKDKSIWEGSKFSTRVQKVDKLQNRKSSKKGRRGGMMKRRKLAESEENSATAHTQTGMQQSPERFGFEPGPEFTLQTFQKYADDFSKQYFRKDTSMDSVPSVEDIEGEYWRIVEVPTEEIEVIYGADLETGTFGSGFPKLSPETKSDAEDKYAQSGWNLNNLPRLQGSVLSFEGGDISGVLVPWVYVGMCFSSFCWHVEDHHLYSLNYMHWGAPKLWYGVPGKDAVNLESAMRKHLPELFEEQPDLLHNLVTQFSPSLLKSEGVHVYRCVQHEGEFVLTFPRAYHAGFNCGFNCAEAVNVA

[2] = target: FA-J3NCZ, FLAG:HA-tagged JmjN-JmjC-zinc finger region of JMJ703 (amino acids 113 to 700) (rice) (UniProt Q53WJ1); experiment: SPR; J3NCZ (FA-J3NCZ) with different concentrations of peptide; set-up for this protein not told in the methods
H3K4me1 = experiment: H3K4 demethylation assay in tobacco cells of JMJ703 substitution mutants, H3K4me1; format: cell-based; conditions: mutant expressed transiently in tobacco cells, immunostaining of nuclei, at least 30 nuclei per transfection
Experimental: (§1) The cDNA fragment of the J3NCZ region was amplified using primers FAJ3NCZ-F and FAJ3NCZ-R and then cloned into pFA121 vector modified from pBI121 (GenBank: AF485783.1), in which GUS was replaced by 2×FLAG∶2×HA tag. The pFA121-J3NCZ plasmid was transferred into Agrobacterium tumefaciens strain EHA105 cells for tobacco infection with the help of Agrobacterium cells harboring P19 plasmids. For in vivo histone demethylation assay, tobacco infection and nuclei isolation were performed as previously described. The immunostaining protocol was modified from http://sites.bio.indiana.edu/~pikaardlab. Briefly, the nucleus solution was placed on a poly-lysine coated slide, air dried, and then refixed with 4% formaldehyde in KPBS (1.28 M NaCl, 20 mM KCl, 80 mM Na2HPO4, 20 mM KH2PO4, pH7.2) containing 1% Triton X-100 for 20 min. After 3 washes with KPBS-1% Triton, slides were blocked with blocking solution (1% BSA in KPBS-1% Triton) and incubated at 37°C for 30 min. The blocking solution was washed off with KPBS-1% Triton and the slides were incubated with both anti-HA and histone méthylation specific antibodies diluted in blocking solution to 1∶300 at 4°C overnight. After washing with KPBS, slides were blocked and incubated with fluorescent-labeled antibodies at 37°C for 2 h. After washing with KPBS thrice, nuclei were stained with 5 µg/mL 4,6-diamidino-2-phenylindole (DAPI), coated with a drop of VECTASHIELD Mounting Medium (H-1000, Vector Laboratories), and then covered with a coverslip followed by confocal microscope (Leica) detection. In vitro histone demethylation assays were performed as previously described. FA-J3NCZ was purified after overexpression with Anti-FLAG M2 magnetic beads according the manufacturer's instruction (Sigma).
(§2) Supplementary file pgen.1003239.s006.tif: Figure S6 Demethylation assays for JMJ703 substitution mutants that have been produced based on the structural data. The mutant names are labeled at the top left corner of each panel. Image panels from left to right are staining by DAPI, anti-HA and anti-methylated histones, respectively. Bar = 10 µm. At least 30 nuclei that expressed JMJ703 per transfection were observed and imaged. (TIF) Click here for additional data file.

H3K4me3 = experiment: H3K4 demethylation assay in tobacco cells of JMJ703 substitution mutants, H3K4me3; format: cell-based; conditions: mutant expressed transiently in tobacco cells, immunostaining of nuclei, at least 30 nuclei per transfection
Experimental: as §1, §2

H3K4me2 = experiment: H3K4 demethylation assay in tobacco cells of JMJ703 substitution mutants, H3K4me2; format: cell-based; conditions: mutant expressed transiently in tobacco cells, immunostaining of nuclei, at least 30 nuclei per transfection
Experimental: as §1, §2

Row | Molecule | Kd [1] [µM] | Kd [2] [µM] | H3K4me1 demethylation activity (H3K4me1) | H3K4me3 demethylation activity (H3K4me3) | H3K4me2 demethylation activity (H3K4me2)
1 | H3K4me0 peptide | 76.6 |  |  |  | 
2 | H3K4me1 peptide | 28.9 | 12.6 |  |  | 
3 | H3K4me2 peptide | 19.3 | 15.1 |  |  | 
4 | B1 |  |  | no | no | no
5 | B2 |  |  | no | yes | yes
6 | B3 |  |  | no | no | no
7 | B4 |  |  | no | no | no
8 | B5 |  |  | no | no | yes
9 | B6 |  |  | no | no | no
10 | B7 |  |  | no | yes | yes
11 | B8 |  |  | no | no | no
12 | B9 |  |  | yes | yes | yes
13 | B10 |  |  | no | no | no
14 | B11 |  |  | no | no | no
15 | B12 |  |  | no | yes | no
